Source: publication PMC3563642, “MERTK Interactions with SH2-Domain Proteins in the Retinal Pigment Epithelium” (PLoS ONE, 2013)

T1: 6xHis-rMERTK(571–999), full-length human MERTK cytoplasmic domain (human, UniProt Q12866 571-999, autophosphorylated on tyrosine (incubated with ATP/MgCl2); sites Y749, Y753, Y754 were mapped on rMERTK571–864, not on this construct)
T1 construct: Expressed from the pET28a-LIC vector; also called MERTK intracellular domain; source: E. coli BL21 DE3 Gold, purified (Ni2+-NTA, Sephacryl S-200 HR), autophosphorylated with 10 mM ATP, 10 mM MgCl2
T1 sequence (looked up): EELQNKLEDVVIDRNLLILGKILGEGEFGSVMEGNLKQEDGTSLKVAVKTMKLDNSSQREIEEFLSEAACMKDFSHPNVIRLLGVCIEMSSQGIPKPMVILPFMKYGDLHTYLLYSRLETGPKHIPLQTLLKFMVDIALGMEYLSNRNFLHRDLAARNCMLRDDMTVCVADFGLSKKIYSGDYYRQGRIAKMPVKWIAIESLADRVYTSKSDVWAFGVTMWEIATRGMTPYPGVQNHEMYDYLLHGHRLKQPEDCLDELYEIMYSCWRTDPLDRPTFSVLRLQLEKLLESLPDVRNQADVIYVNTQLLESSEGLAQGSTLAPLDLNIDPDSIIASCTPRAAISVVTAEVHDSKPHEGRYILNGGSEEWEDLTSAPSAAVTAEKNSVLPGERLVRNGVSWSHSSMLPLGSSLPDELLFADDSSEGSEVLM

B1: HCK GST-SH2 domain fusion protein (domain or fragment, human, UniProt P08631 144-241, looked up)
chain: WFFKGISRKDAERQLLAPGNMLGSFMIRDSETTKGSYSLSVRDYDPRQGDTVKHYKIRTLDNGGFYISPRSTFSTLQELVDHYKKGNDGLCQKLSVPC
notes: pGEX2T construct from a library of SH2 domains; also called rSH2-domain fusion protein corresponding to HCK; source: E. coli BL21 DE3 Gold, purified (glutathione-agarose, Sephacryl S-200 HR)
B2: VAV1 GST-SH2 domain fusion protein (domain or fragment, human, UniProt P15498 671-765, looked up)
chain: WYAGPMERAGAESILANRSDGTFLVRQRVKDAAEFAISIKYNVEVKHIKIMTAEGLYRITEKKAFRGLTELVEFYQQNSLKDCFKSLDTTLQFPF
notes: pGEX2T construct from a library of SH2 domains; also called rSH2-domain fusion protein corresponding to VAV1; source: E. coli BL21 DE3 Gold, purified (glutathione-agarose, Sephacryl S-200 HR)
B3: VAV3 GST-SH2 domain fusion protein (domain or fragment, human, UniProt Q9UKW4 672-766, looked up)
chain: WYAGAMERLQAETELINRVNSTYLVRHRTKESGEYAISIKYNNEAKHIKILTRDGFFHIAENRKFKSLMELVEYYKHHSLKEGFRTLDTTLQFPY
notes: pGEX2T construct from a library of SH2 domains; also called rSH2-domain fusion protein corresponding to VAV3; source: E. coli BL21 DE3 Gold, purified (glutathione-agarose, Sephacryl S-200 HR)

Biological target: T1, 6xHis-rMERTK(571–999), full-length …
Assay: pull-down; Ni2+-NTA pull down: GST-rSH2-domain protein (10 µg) incubated with autophosphorylated 6xHis-rMERTK571–999 (10 µg) in 50 mM NaH2PO4, 300 mM NaCl, 10 mM imidazole, 0.1 µM PMSF, 1 h at 4°C, then Ni2+-NTA resin 0.5 h; washes with 50 mM imidazole, elution with 500 mM imidazole; Coomassie-stained SDS gels; negative control omits rMERTK
Details: both partners purified

binding result	Binder
binds	B1
binds	B2
binds	B3
